From publication PMC11024197 (Nature Communications, 2024) come the findings set out here.

Several values for one entry are separate records, joined by “and”; a condition that tells them apart may be missing. Equal entries are not always repeated.

To fix the notation:
B10: PEX13 SH3 domain (residues 261-346) (domain or fragment, human, UniProt Q92968 261-346, looked up)
chain: VTDSINWASGEDDHVVARAEYDFAAVSEEEISFRAGDMLNLALKEQQPKVRGWLLASLDGQTTGLIPANYVKILGKRKGRKTVESS
notes: 15N-labelled in the NMR titrations, unlabelled in ITC; source: E. coli BL21 (DE3), purified (Ni-NTA, SUMO cleavage, reverse Ni-NTA, SEC); not shown: His6-SUMO, N-terminal, cleaved
B11: PEX13 SH3 domain (domain or fragment, human)
chain: VTDSINWASGEDDHVVARAEYDFAAVSEEEISFRAGDMLNLALKEQQPKVRGWLLASLDGQTTGLIPANYVKILGKRKGRKTVESS
notes: the SH3-CTR construct begins at 261 and the crystallised chimeras end the SH3 part at 346; source: E. coli BL21 (DE3), purified (Ni-NTA, SUMO cleavage, reverse Ni-NTA, SEC)
B12: PEX14 NTD (1-104) (domain or fragment, human, UniProt O75381 1-104, looked up)
chain: MASSEQAEQPSQPSSTPGSENVLPREPLIATAVKFLQNSRVRQSPLATRRAFLKKKGLTDEEIDMAFQQSGTAADEPSSLGPATQVVPVQPPHLISQPYSPAGS
notes: human PEX14, N-terminal domain, residues 1-104; also called PEX14 1-104; source: E. coli BL21 (DE3), purified (Ni-NTA, SUMO cleavage, reverse Ni-NTA, SEC); not shown: His6-SUMO, N-terminal, cleaved

Conditions in all cases: both partners purified
Assay [1] addresses B10. Description: ITC; PEX13 SH3 (35-48 µM) in the cell, titrated with peptide; 25 °C; 20 mM Tris pH 7.5, 50 mM NaCl; one-site binding model; triplicates. (Isothermal titration calorimetry measures the heat released or taken up as one component is titrated into another.)
Assay [2] addresses B10. Kind of assay: NMR titration; 15N-labelled PEX13 construct (100 µM reference) with unlabelled ligand added; 1H,15N correlation spectra; 298 K; 20 mM Tris pH 7.5, 50 mM NaCl.
Assay [3] deals with T1, PEX13 SH3-CTR (residues 261-403) (human, UniProt Q92968 261-403).
T1 construct: 15N-labelled in the NMR titrations, unlabelled as ITC titrant; source: E. coli BL21 (DE3), purified (Ni-NTA, SUMO cleavage, reverse Ni-NTA, SEC); not shown: His6-SUMO, N-terminal, cleaved
T1 sequence (looked up): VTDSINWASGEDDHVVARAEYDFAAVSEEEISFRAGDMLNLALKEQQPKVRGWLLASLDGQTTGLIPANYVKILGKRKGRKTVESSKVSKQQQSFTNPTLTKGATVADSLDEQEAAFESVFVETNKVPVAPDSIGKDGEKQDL
The assay is described as above.

For the assay “PEX13 SH3 domain”, the target named is B11. Description: ITC; PEX13 SH3 (35-48 uM) in the cell, peptide or fragment in the syringe; 25 °C, 20 mM Tris pH 7.5, 50 mM NaCl; one-site binding model; single runs of triplicates and their averages.
Assay [4] addresses T2, PEX14 NTD (1-104) (human, UniProt O75381 1-104).
T2 construct: human PEX14 (UniProtKB O75381), N-terminal domain, residues 1-104; also called PEX14 (1-104); source: E. coli BL21 (DE3), purified (Ni-NTA, SUMO cleavage, reverse Ni-NTA, SEC)
Kind of assay: ITC; PEX14 (1-104) (20-60 uM, concentration corrected with the fit) in the cell, peptide or fragment in the syringe; 25 °C, 20 mM Tris pH 7.5, 50 mM NaCl; one-site binding model; single runs of triplicates and their averages.

The target in assay [5] is B12. Kind of assay: ITC; PEX14 NTD (1-104) (20-60 µM) in the cell, titrated with PEX5 W peptides or W0 (0.4-0.6 mM), PEX13 FxxxF (0.46 mM) or PEX13 SH3-CTR (1 mM); 25 °C; 20 mM Tris pH 7.5, 50 mM NaCl; one-site binding model; PEX14 concentration corrected with the fit; triplicates.
The target of assay [6] is T3, PEX5 W3 peptide (human).
T3 construct: 15-mer with the W3 (di)aromatic motif of human PEX5; source: synthetic peptide, bought: PSL (Peptide Specialty Laboratories GmbH)
Kind of assay: ITC; PEX13 SH3 (35-48 µM) in the cell, titrated with peptide; 25 °C; 20 mM Tris pH 7.5, 50 mM NaCl; one-site binding model; triplicates.

The target of assay [7] is T4, PEX5 W2 peptide (human).
T4 construct: 15-mer with the W2 WxxxF motif of human PEX5; source: synthetic peptide, bought: PSL (Peptide Specialty Laboratories)
Kind of assay: ITC; PEX13 SH3 (35-48 uM) in the cell, peptide or fragment in the syringe; 25 °C, 20 mM Tris pH 7.5, 50 mM NaCl; one-site binding model; single runs of triplicates and their averages.

For assay [8], the target named is T5, PEX5 W3 peptide (human).
T5 construct: 15-mer with the W3 WxxxY motif of human PEX5; source: synthetic peptide, bought: PSL (Peptide Specialty Laboratories)
Described as above.

In assay [9] the target is T6, PEX5 W4 peptide (human).
T6 construct: 15-mer with the W4 WxxxY motif of human PEX5 (R183, Y185, Y188 are named in the text); source: synthetic peptide, bought: PSL (Peptide Specialty Laboratories)
The description is as above.

Assay [10] addresses T3, PEX5 W3 peptide. Kind of assay: ITC; PEX14 NTD (1-104) (20-60 µM) in the cell, titrated with PEX5 W peptides or W0 (0.4-0.6 mM), PEX13 FxxxF (0.46 mM) or PEX13 SH3-CTR (1 mM); 25 °C; 20 mM Tris pH 7.5, 50 mM NaCl; one-site binding model; PEX14 concentration corrected with the fit; triplicates.
In assay [11] the target is T7, PEX5 W4 peptide (human).
T7 construct: source: synthetic peptide, bought: PSL (Peptide Specialty Laboratories GmbH)
Described as above.

In assay [12] the target is T8, PEX5 W2 peptide (human).
T8 construct: 15-mer with the W2 (di)aromatic motif of human PEX5; source: synthetic peptide, bought: PSL (Peptide Specialty Laboratories GmbH)
Described as above.

Assay [13] has as its target T9, PEX5 W4 peptide (human).
T9 construct: 15-mer with the W4 WxxxY motif of human PEX5 (R183, Y185, Y188 printed); also called PEX5 W4 motif; source: synthetic peptide, bought: PSL (Peptide Specialty Laboratories)
Kind of assay: ITC; PEX14 (1-104) at 20-60 µM titrated with PEX5 W peptides or W0 (0.4-0.6 mM), PEX13 FxxxF (0.46 mM) or PEX13 SH3-CTR (1 mM); 25 °C; 20 mM Tris pH 7.5, 50 mM NaCl; one-site model; PEX14 concentration corrected with the fit; triplicates.

The target of assay [14] is T7, PEX5 W4 peptide. Description: NMR titration; reduced (2 mM TCEP) 15N PEX13-CTR IA/CC with 4x and 8x PEX5 W4; 1H,15N correlation spectra.

B1: PEX13 C-terminal peptide (351-403) with WT FxxxF motif (peptide)
chain: YGGQQQSFTNPTLTKGATVADSLDEQEAAFESVFVETNKVPVAPDSIGKDGEKQDL
notes: three residues added before residue 351; main text and some legends say 350-403; also called PEX13 FxxxF; FxxxF peptide (350-403); source: E. coli BL21 (DE3), purified (Ni-NTA, SUMO cleavage, reverse Ni-NTA, SEC); not shown: His6-SUMO, N-terminal, cleaved
On to B1, for which, in assay [1], the Kd is 26.9 µM and the “stoichiometry N” value was found to be 1.

B2: PEX13 C-terminal peptide (351-403) with the FxxxF motif replaced by the PEX5 W4 motif (peptide)
chain: YGGQQQSFTNPTLTKGATVADSLDEQEAAWYDEYVETNKVPVAPDSIGKDGEKQDL
notes: three residues added before residue 351; also called FF/W4; source: E. coli BL21 (DE3), purified (Ni-NTA, SUMO cleavage, reverse Ni-NTA, SEC); not shown: His6-SUMO, N-terminal, cleaved
B2: in assay [1], the Kd amounted to 6.4 µM and the “stoichiometry N” value came to 1.

B3: PEX13 PxxP peptide (49-61) (peptide, UniProt Q92968 49-61, looked up)
peptide: TRVPPPILPRPSQ
As to B3, the binding result in assay [2] and in [3] was “binds” in each case.

B4: PEX13 FxxxF peptide (residues 350-403) (domain or fragment, human, UniProt Q92968 350-403, looked up)
chain: KQQQSFTNPTLTKGATVADSLDEQEAAFESVFVETNKVPVAPDSIGKDGEKQDL
notes: also called Pex13_FxF; source: E. coli BL21 (DE3), purified (Ni-NTA, SUMO cleavage, reverse Ni-NTA, SEC)
Regarding B4, in the assay with PEX13 SH3 domain, the Kd was 21.4 µM and 32.4 µM and 27 µM; the “stoichiometry N” value is 1 sites. In the assay with PEX14 NTD (1-104) [4], the Kd was 3.09 µM and 2.23 µM and 3.08 µM; the “stoichiometry N” value was 1 sites.

B5: PEX5 W6 peptide (peptide)
peptide: GTSDAWVDQFTRPVN
notes: 15-mer with the W6 (di)aromatic motif of human PEX5; source: synthetic peptide, bought: PSL (Peptide Specialty Laboratories GmbH)
For B5, in the assay with PEX14 NTD (1-104) [5], the “stoichiometry N” value is 1.

B6: PEX5 W7 peptide (peptide)
peptide: AEAHPWLSDYDDLTS
notes: 15-mer with the W7 (di)aromatic motif of human PEX5; source: synthetic peptide, bought: PSL (Peptide Specialty Laboratories GmbH)
For the molecule B6, in the assay with PEX14 NTD (1-104) [5], the “stoichiometry N” value came out at 1.

B7: PEX5 W7 peptide (peptide)
peptide: AEAHPWLSDYDDLTS
notes: 15-mer with the W7 WxxxY motif of human PEX5; source: synthetic peptide, bought: PSL (Peptide Specialty Laboratories)
In the case of B7, the “stoichiometry N” value in the assay with PEX14 NTD (1-104) [4] is 1 sites.

B8: PEX5 W5 peptide (peptide)
peptide: AQAEQWAAEFIQQQG
notes: 15-mer with the W5 (di)aromatic motif of human PEX5; source: synthetic peptide, bought: PSL (Peptide Specialty Laboratories GmbH)
For the molecule B8, in the assay with PEX14 NTD (1-104) [5], the Kd worked out at 0.0205 µM and the “stoichiometry N” value came out at 1.

B9: PEX5 W6 peptide (peptide)
peptide: GTSDAWVDQFTRPVN
notes: 15-mer with the W6 WxxxF motif of human PEX5; source: synthetic peptide, bought: PSL (Peptide Specialty Laboratories)
For B9, the “stoichiometry N” value with PEX14 NTD (1-104) [4] is 1 sites.

With B10, binding in the assay with PEX5 W3 peptide [6] was characterised by a dissociation constant (Kd) of 102 µM.

On to B11, for which the Kd was 88.8 µM and 86.8 µM and 88.6 µM with PEX5 W2 peptide [7]; 112 µM and 92.3 µM in the assay with PEX5 W3 peptide [8]; 44.9 µM and 48.5 µM and 36.9 µM in the assay with PEX5 W4 peptide [9].

With B12, the Kd with PEX5 W3 peptide [10] is 0.137 µM; in the assay with PEX5 W4 peptide [11], 3.14 µM; with PEX5 W2 peptide [12] it was 0.0736 µM.

B13: PEX14 NTD (1-104) (domain or fragment, human, UniProt O75381 1-104, looked up)
chain: MASSEQAEQPSQPSSTPGSENVLPREPLIATAVKFLQNSRVRQSPLATRRAFLKKKGLTDEEIDMAFQQSGTAADEPSSLGPATQVVPVQPPHLISQPYSPAGS
notes: human PEX14 N-terminal domain, residues 1-104; also called PEX14 (1-104); source: E. coli BL21 (DE3), purified (Ni-NTA, SUMO cleavage, reverse Ni-NTA, SEC)
As to B13, in the assay with PEX5 W4 peptide [13], binding was put at a Kd of 3.14 µM. That is a single-digit micromolar value.

B14: PEX5 W5 peptide (peptide)
peptide: AQAEQWAAEFIQQQG
notes: 15-mer with the W5 WxxxF motif of human PEX5; source: synthetic peptide, bought: PSL (Peptide Specialty Laboratories)
For the molecule B14, in the assay with PEX14 NTD (1-104) [4], the Kd is 0.0172 µM and 0.0188 µM and 0.0255 µM and 0.0205 µM; the “stoichiometry N” value was found to be 1 sites.

B15: PEX5 W1 peptide (peptide)
peptide: ALSENWAQEFLAAGD
notes: 15-mer with the W1 WxxxF motif of human PEX5; source: synthetic peptide, bought: PSL (Peptide Specialty Laboratories)
Consider B15, for which, in the assay with PEX14 NTD (1-104) [4], the Kd was 0.0751 µM and 0.0626 µM and 0.0791 µM and 0.0723 µM; the “stoichiometry N” value was 1 sites.

B16: PEX13-CTR double cysteine mutant I333C/A376C (IA/CC) (domain or fragment, human, UniProt Q92968 261-403, looked up)
chain: VTDSINWASGEDDHVVARAEYDFAAVSEEEISFRAGDMLNLALKEQQPKVRGWLLASLDGQTTGLIPANYVKCLGKRKGRKTVESSKVSKQQQSFTNPTLTKGATVADSLDEQEACFESVFVETNKVPVAPDSIGKDGEKQDL
notes: the two states are told apart by the assay; 15N-labelled; also called PEX13 CTR IA/CC; PEX13-CTR IA/CC; source: E. coli BL21 (DE3), purified (Ni-NTA, SUMO cleavage, reverse Ni-NTA, SEC); not shown: His6-SUMO, N-terminal, cleaved
In the case of B16, the binding result with PEX5 W4 peptide [14] is on record as “binds”.

B17: PEX5 W1 peptide (peptide)
peptide: ALSENWAQEFLAAGD
notes: 15-mer with the W1 (di)aromatic motif of human PEX5; source: synthetic peptide, bought: PSL (Peptide Specialty Laboratories GmbH)
For B17, in the assay with PEX14 NTD (1-104) [5], binding was characterised by a dissociation constant (Kd) of 0.0723 µM and the “stoichiometry N” value stood at 1.

In general, Kd refers to the free concentration of one partner at which half of the binding sites on the other are occupied at equilibrium, for simple one-to-one binding. Usually stoichiometry N stands for a count of units in the complex or per binding partner.
